The target in one data set is Egr-1 Δ284-330 (Mus musculus, UniProt P08046 SEQ:1-533, del284-330). Description: cell_activity; HeLa, enhanced activation. The method, then:
A series of deletion derivatives, each retaining the zinc finger domain, was assayed for transcriptional activity by transient transfection in HeLa and NIH3T3 cells (see FIG. 9). NIH3T3 and HeLa cells were maintained in Dulbecco's modified Eagle's medium (DMEM) with 10% calf serum. Cells were seeded at 8 ×10^5 cells per 100 mm plate the day before transfection. The media was replaced 2 to 6 hours prior to transfection by calcium phosphate-mediated precipitation. Each precipitate included 1 μg of the internal reference pON260, a CMV driven β-galactosidase plasmid (67), or 3 μg of PCH110, a SV40 driven β-galactosidase plasmid (Pharmacia), and remained on the cells for 16–20 hours. Forty-eight hours after transfection, cell extracts were prepared by freeze thaw lysis in 0.25M Tris-HCl 7.8 with protease inhibitors (1mM PMSF, 1 μg/ml Pepstatin A, and […] Leupeptin).
Deletion analyses were performed as described in Example 10, above. […] The enhanced activation seen with deletion A284–330 is consistent with the loss of a region important for repression or negative regulation.

Another data set has as its target Egr-1 (full length) (Mus musculus, UniProt P08046 SEQ:1-533). Description: cell_activity; activation in NIH3T3; dependent on Egr-1 sites.

In US5763209, “Methods and materials relating to the functional domains of DNA binding proteins” (Arch Development Corporation) one finds activity data, which are given here for one molecule.

Egr-1 (full length), sequence (P08046 whole entry): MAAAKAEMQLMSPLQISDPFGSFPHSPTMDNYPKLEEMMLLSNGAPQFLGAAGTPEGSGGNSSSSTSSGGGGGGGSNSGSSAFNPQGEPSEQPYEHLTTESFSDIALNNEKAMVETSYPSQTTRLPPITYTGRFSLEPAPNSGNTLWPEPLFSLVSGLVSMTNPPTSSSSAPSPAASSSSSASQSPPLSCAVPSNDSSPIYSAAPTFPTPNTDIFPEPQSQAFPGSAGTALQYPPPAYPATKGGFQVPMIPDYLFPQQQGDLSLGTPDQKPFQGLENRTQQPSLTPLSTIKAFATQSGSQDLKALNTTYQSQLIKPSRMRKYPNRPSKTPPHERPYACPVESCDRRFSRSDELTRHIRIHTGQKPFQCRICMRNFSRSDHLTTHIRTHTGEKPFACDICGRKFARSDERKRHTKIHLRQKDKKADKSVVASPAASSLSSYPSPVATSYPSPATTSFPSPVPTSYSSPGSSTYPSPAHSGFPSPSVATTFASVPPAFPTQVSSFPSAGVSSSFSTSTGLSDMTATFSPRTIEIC
Egr-1 Δ284-330, sequence (P08046 other isoform, or with tags, fused parts or gaps del284-330 | mutant): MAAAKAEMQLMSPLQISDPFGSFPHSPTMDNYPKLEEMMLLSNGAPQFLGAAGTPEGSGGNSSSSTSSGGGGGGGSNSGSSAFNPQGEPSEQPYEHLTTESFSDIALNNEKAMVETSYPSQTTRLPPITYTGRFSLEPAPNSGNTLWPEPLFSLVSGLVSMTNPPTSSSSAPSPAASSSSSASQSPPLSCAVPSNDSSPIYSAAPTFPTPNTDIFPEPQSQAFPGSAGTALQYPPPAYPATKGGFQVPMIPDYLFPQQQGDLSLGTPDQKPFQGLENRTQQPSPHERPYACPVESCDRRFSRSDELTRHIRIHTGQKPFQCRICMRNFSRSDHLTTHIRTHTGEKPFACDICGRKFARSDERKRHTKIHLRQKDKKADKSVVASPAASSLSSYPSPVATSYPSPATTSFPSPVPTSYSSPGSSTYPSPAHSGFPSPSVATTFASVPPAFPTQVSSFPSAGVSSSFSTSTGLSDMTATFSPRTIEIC

B1: EBS1^3 foscat (3 Egr-1 sites in front of minimal c-fos promoter) (dsDNA)
DNA 1: CGCCCCCGC
DNA 2: GCGGGGGCG
As for B1, the results for the activity in the data set with Egr-1 Δ284-330 and with Egr-1 (full length) were ~5 fold of wild type and 10 fold, respectively.
